Laboratory results as given in patent US8629107B2, “Genes and proteins associated with angiogenesis and uses thereof” (National Jewish Health, priority 2005, dated 2014).

B1: MAGP-2: secreted glycoprotein (25 kDa); stably expressed in MB114 cells by bicistronic retroviral transduction, Myc-His tagged (protein)
chain: QRGDDVPETFTDDPNLVNDPSTDDTALADITPSTDDLAGDKNATAECRDEKFACTRLYSVHRPVRQCVHQSCFTSLRRMYIINNEICSRLVCKEHEAMKDELCRQMAGLPPRRLRRSNYFRLPPCENMNLQRPDGL
modifications: left off: small tags and cut ends
notes: secreted glycoprotein (25 kDa); stably expressed in MB114 cells by bicistronic retroviral transduction, Myc-His tagged
B2: rMAGP-2: recombinant FLAG-tagged MAGP-2 purified from bacterial cell extracts by anti-FLAG chromatography (protein, UniProt Q9QZJ6 29-164, looked up)
Microfibrillar-associated …: B1 chain
modifications: FLAG tag
notes: recombinant FLAG-tagged MAGP-2 purified from bacterial cell extracts by anti-FLAG chromatography

Assays:
MB114 cells [1] = assay: cell proliferation, [3H]thymidine incorporation assay; type: cell-based, murine; conditions: serum-starved MB114 cells stably expressing the transgene vs GFP, 24 h, 37° C.
Experimental: (§1) The effect putative angiogenic agents had on MB114 cell activities were determined as follows: (i) cell proliferation using a [^3H]thymidine incorporation assay as described (Albig et al, 2006; Albig and Schiemann, 2004; Albig and Schiemann, 2005); (ii) cell invasion through Matrigel matrices using a modified Boyden-chamber assay as described (Albig et al, 2006; Albig and Schiemann, 2004; Albig and Schiemann, 2005); (iii) p38 MAPK phosphorylation using immunoblot analyses as described (Albig et al, 2006; Albig and Schiemann, 2004; Albig and Schiemann, 2005); (iv) angiogenic sprouting in rat tail collagen matrices as described (Albig et al, 2006; Albig and Schiemann, 2004); and (v) Hes1- and SBE-driven luciferase reporter gene assays as described (Albig et al, 2006; Albig and Schiemann, 2004; Albig and Schiemann, 2005).
(§2) FIG. 1A show results from an experiment in which serum-starved MB114 cells, stably expressing either GFP or various putative angiogenic agents, were stimulated in the absence or presence of either bFGF (50 ng/ml) or EGF (10 ng/ml) for 24 h at 37° C. Differences in MB114 cell DNA synthesis was determined by measuring [^3H]thymidine incorporation into cellular DNA. […] In this experiment, invasion of MB114 cells expressing either GFP or various putative angiogenic agents through synthetic basement membranes was determined over 48 h using a modified Boyden-chamber assay.

MB114 cells [2] = assay: cell invasion through Matrigel matrices, modified Boyden-chamber assay; type: cell-based, murine; conditions: MB114 cells stably expressing the transgene vs GFP; 48 h
Experimental: as §1, §2

p38 MAPK = p38 MAPK phosphorylation by immunoblot analyses; type: cell-based, murine; conditions: serum-starved MB114 cells expressing the transgene; bFGF 50 ng/ml or EGF 10 ng/ml, 0-15 min
Experimental: as §1
The inventors' previous studies have associated stimulation of p38 MAPK activity with angiogenesis of MB114 cells and, conversely, inhibition of p38 MAPK activity with angiostasis of MB114 cells (Albig et al, 2006; Albig and Schiemann, 2004; Albig and Schiemann, 2005). […] The phosphorylation status of p38 MAPK was determined by immunoblotting whole cell lysates with phospho-specific p38 MAPK antibodies (p38-P). Differences in protein loading were monitored by reprobing stripped membranes with anti-p38 MAPK polyclonal antibodies (p38).

[3] = system: Smad2/3-binding element (SBE); assay: SBE-driven luciferase reporter gene assay in MB114 cells; type: cell-based, murine; conditions: MAGP-2-expressing vs GFP-expressing MB114 cells; TGF-β1 0-5 ng/ml overnight
Experimental: as §1
To further investigate the impact of MAGP-2 on Notch1 processing and NICD accumulation, the inventors took advantage of recent findings showing that the ability of TGF-β to induce Hes1 promoter activity requires Smad3 to interact physically with NICD (Blokzijl et al, 2003), a reaction that is dispensable for canonical Smad3-mediated signaling stimulated by TGF-β (Blokzijl et al, 2003). […]

MCA102 fibrosarcomas = MCA102 fibrosarcomas produced in mice; type: in vivo; conditions: unpublished observation
[4] = system: vessel formation and infiltration into Matrigel plugs; assay: Matrigel plug implantation assay; type: in vivo, C57BL/6 mice; conditions: 1 μg/ml with bFGF 50 ng/ml vs bFGF alone; subcutaneous, C57BL/6 mice, day 10
Experimental: The effect of MAGP-2 on vessel formation and infiltration into Matrigel plugs implanted into genetically normal mice was determined as described (Albig et al, 2006). Briefly, phenol red-free Matrigel (BD biosciences, Bedford, Mass.) was mixed with PBS (diluent), bFGF (50 or 300 ng/ml; R&D Systems, Minneapolis, Minn.), or recombinant MAGP-2 (1 μg/ml) together with bFGF (50 ng/ml), and the resulting mixtures were injected twice subcutaneously in the ventral groin area (400 μl/injection) of C57BL/6 mice. The mice were sacrificed 10 days post-implantation and the Matrigel plugs were dissected, fixed overnight in 10% formalin, and sectioned in the National Jewish Histology Laboratory. Afterward, Masson's trichrome staining was performed to visualize infiltrating vessels, which were quantified under a light microscope by determining the average number of vessels present in 5 random fields (200× magnification). Only those fields that contained at least one vessel in the area underlying the skin were tallied. Two mice were used per experimental condition and this experiment was performed three times in its entirety. All animal studies were performed according to protocol procedures approved by the Animal Care and Use Committee at National Jewish Medical and Research Center.
The inventors tested this hypothesis by utilizing the Matrigel plug implantation assay, which monitors the ability of various angiogenic agents to alter vessel formation and infiltration into Matrigel plugs implanted subcutaneously into normal mice. […] MAGP-2 purity was monitored by coomassie staining, and by immunoblotting with anti-FLAG M2 monoclonal antibodies (FIG. 2A; right panel). rMAGP-2 (1 μg/ml) stimulated angiogenic sprouting of quiescent MB114 cell monolayers (FIG. 2A; left panel). […] Afterward, the Matrigel plugs were fixed, sectioned, and stained with Masson's trichrome to visualize infiltrating blood vessels (FIG. 2B; right panels; arrows denote blood vessels), which were quantified by manual counting under a light microscope. […]

Molecule | proliferative response of MB114 cells to EGF ([3H]thymidine incorporation into cellular DNA) (MB114 cells [1]; EGF 10 ng/ml) | proliferative response of MB114 cells to bFGF ([3H]thymidine incorporation into cellular DNA) (MB114 cells [1]; bFGF 50 ng/ml) | MB114 cell invasion through synthetic basement membranes (MB114 cells [2]) | p38 MAPK phosphorylation (p38 MAPK) | TGF-β stimulation of SBE-luciferase activity [3] | growth of MCA102 fibrosarcomas produced in mice (MCA102 fibrosarcomas) | vascularization of MCA102 fibrosarcomas produced in mice (MCA102 fibrosarcomas) | development and infiltration of vessels into Matrigel plugs [4]
B1 | significantly enhanced | significantly enhanced | significantly induced | significantly enhanced | no effect | significantly increase | significantly increase | –
B2 | – | – | – | – | – | – | – | significantly increased
